FireProtDB (doi:10.1021/bi00025a018)

B1: Ribonuclease HI, P0A7Y4 (parent)
chain: MLKQVEIFTDGSCLGNPGPGGYGAILRYRGREKTFSAGYTRTTNNRMELMAAIVALEALKEHCEVILSTDSQYVRQGITQWIHNWKKRGWKTADKKPVKNVDLWQRLDAALGQHQIKWEWVKGHAGHPENERCDELARAAAMNPTLEDTGYQVEV

Variants of: B1
Conditions: Escherichia coli (strain K12), Thermal, CD, NaCl 0.1 M, reversible: yes, structure 2RN2, whole UniProt chain shown
[1] = pH 3, 50.9 °C, glycine-HCl 10 mM
[2] = pH 5.5, 52.5 °C, Sodium acetate 10 mM

| Variant | ddG of mutation (higher = less stable) [1] | Tm (pH 3, glycine-HCl 10 mM) | change of melting temperature, mutant - wild type (higher = more stable) (pH 3, glycine-HCl 10 mM) | unfolding enthalpy (van 't Hoff) (pH 3, glycine-HCl 10 mM) | ddG of mutation (higher = less stable) [2] | Tm (pH 5.5, Sodium acetate 10 mM) | change of melting temperature, mutant - wild type (higher = more stable) (pH 5.5, Sodium acetate 10 mM) | unfolding enthalpy (van 't Hoff) (pH 5.5, Sodium acetate 10 mM) |
| --- | --- | --- | --- | --- | --- | --- | --- | --- |
| G23A | -0.7 kcal/mol | 53.2 °C | 2.3 °C | 99.3 kcal/mol | -0.5 kcal/mol | 54.3 °C | 1.8 °C | 91.8 kcal/mol |
| V74L | -1.1 kcal/mol | 54.6 °C | 3.7 °C | 119 kcal/mol | -0.9 kcal/mol | 55.8 °C | 3.3 °C | 91.2 kcal/mol |
| H62P | -1 kcal/mol | 54.3 °C | 3.4 °C | 110 kcal/mol | -1.1 kcal/mol | 56.6 °C | 4.1 °C | 102 kcal/mol |
| D134H | -0.5 kcal/mol | 53.6 °C | 1.7 °C | 106 kcal/mol | -1.9 kcal/mol | 59.5 °C | 7 °C | 107 kcal/mol |
